# Measurements from IntAct's records for PubMed 22178926.
# B1: Integrin beta-3 (Homo sapiens), P05106 (parent)
# chain: MRARPRPRPLWATVLALGALAGVGVGGPNICTTRGVSSCQQCLAVSPMCAWCSDEALPLGSPRCDLKENLLKDNCAPESIEFPVSEARVLEDRPLSDKGSGDSSQVTQVSPQRIALRLRPDDSKNFSIQVRQVEDYPVDIYYLMDLSYSMKDDLWSIQNLGTKLATQMRKLTSNLRIGFGAFVDKPVSPYMYISPPEALENPCYDMKTTCLPMFGYKHVLTLTDQVTRFNEEVKKQSVSRNRDAPEGGFDAIMQATVCDEKIGWRNDASHLLVFTTDAKTHIALDGRLAGIVQPNDGQCHVGSDNHYSASTTMDYPSLGLMTEKLSQKNINLIFAVTENVVNLYQNYSELIPGTTVGVLSMDSSNVLQLIVDAYGKIRSKVELEVRDLPEELSLSFNATCLNNEVIPGLKSCMGLKIGDTVSFSIEAKVRGCPQEKEKSFTIKPVGFKDSLIVQVTFDCDCACQAQAEPNSHRCNNGNGTFECGVCRCGPGWLGSQCECSEEDYRPSQQDECSPREGQPVCSQRGECLCGQCVCHSSDFGKITGKYCECDDFSCVRYKGEMCSGHGQCSCGDCLCDSDWTGYYCNCTTRTDTCMSSNGLLCSGRGKCECGSCVCIQPGSYGDTCEKCPTCPDACTFKKECVECKKFDRGALHDENTCNRYCRDEIESVKELKDTGKDAVNCTYKNEDDCVVRFQYYEDSSGKSILYVVEEPECPKGPDILVVLLSVMGAILLIGLAALLIWKLLITIHDRKEFAKFEEERARAKWDTANNPLYKEATSTFTNITYRGT
# Variants of: B1
# Details: with ITGA2B
row,Variant,effect of a mutation on the interaction
1,K742E,disrupting interaction strength
2,K742A,disrupting interaction strength
3,K742C,disrupting interaction strength

# Continued, values first:
row,effect of a mutation on the interaction,Variant
1,disrupting interaction strength,K742S
2,disrupting interaction strength,K742L
